# According to PMC13098475:
# Target: traptavidin (streptavidin-variant), expressed and purified by IMAC (Streptomyces avidinii) (UniProt P22629)
# Assay: native MS; native electrospray ionization mass spectrometry of the IMAC-purified proteins; oligomeric state of the protomers (tetramer), no cross-linker
substance,measurement,value
"traptavidin (streptavidin-variant), expressed and purified by IMAC (from UniProt P22629 25-183) (natural protein)",percent of the protein that is tetrameric,95%
same,stoichiometry N,4
